Consider two molecules from patent publication US20090148510A1 (Stanford University, published 2009).

The target of assay [1] is T1, purified β2AR having an amino terminal Flag epitope tag and a carboxyl hexahistidine tag (UniProt P07550 1-413).
T1 construct: also called β2 adrenoreceptor; denatured β2AR (when treated with SDS); not shown: carboxyl hexahistidine tag (six His)
Put plainly: isothermal titration calorimetry, detergent-solubilized β2AR, 25° C. The protocol:
ITC measurements were performed at 25° C. using a VP-ITC calorimeter (Microcal, Inc.). […] Titrations were initiated with a 3 μl injection, followed by a series of 8 μl injections (37 β₂AR and 31 for β₂AR buffer blank), with 240 s between injections. After subtracting the blank titration, the measured heat released upon binding was plotted against the Fab:β₂AR molar ratio, and the data were fitted to a single-site binding model to obtain the association constant Ka, enthalpy change ΔH, and stoichiometry n using the Origin software package¹ (Microcal, Inc.)
For orientation: ITC needs no label: the signal is the heat of the interaction.

Assay [2] addresses T2, β2AR labeled at C265 with tetramethylrhodamine (UniProt P07550 1-413, tetramethylrhodamine on C265).
T2 construct: Detergent-solubilized (0.1% dodecylmaltoside) purified receptor; also called β2AR-TMR
Put plainly: antibody dose-response on fluorescence of β2AR-TMR (labeled at C265), 4 nM receptor.

B1: Fab 5 (Fab fragment of antibody 5) (Fab, V domains shown)
VH: EVQLQQSGAELARPGASVKLSCKASGYIFTDYYINWVRQRTGQGFEWIGEIYPGSGNIDYNERFKDKATLTADKSSSTAYMQLSSLTSEDSAVYFCVRGFGYWGQGTTLTVSS
VL: DIKMTQSPSSMYASLGERVTITCKASQDINSYLSWFQQKPGKSPKTLIYRANRLVDGVPSRFIGTGSGQDYSLTISSLDYEDMGIYYCLQYDEFPYTFGGGTKLEIKR
notes: Made by papain cleavage of purified mouse antibody 5 and purified by ion exchange (Mono Q) chromatography; also called Fab5 antibody; Fab 5 fragments
For orientation: Kd means the equilibrium constant for the complex coming apart. Molecule B1 showed a Kd in assay [1] of 150 nM.

B2: antibody 5 (intact mouse monoclonal antibody) (antibody, V domains shown)
VH: EVQLQQSGAELARPGASVKLSCKASGYIFTDYYINWVRQRTGQGFEWIGEIYPGSGNIDYNERFKDKATLTADKSSSTAYMQLSSLTSEDSAVYFCVRGFGYWGQGTTLTVSS
VL: DIKMTQSPSSMYASLGERVTITCKASQDINSYLSWFQQKPGKSPKTLIYRANRLVDGVPSRFIGTGSGQDYSLTISSLDYEDMGIYYCLQYDEFPYTFGGGTKLEIKR
notes: Mouse IgG from hybridoma; also called Mab5; Mab5 IgG
The EC50 is the concentration at which the effect is half-maximal. Lower therefore signals an effect from little substance. Molecule B2 displayed an EC50 in assay [2] of 23 nM.
